According to paper PMC8568140, “Assembly of infectious Kaposi’s sarcoma-associated herpesvirus progeny requires formation of a pORF19 pentamer” (PLoS Biology, 2021):
Positions count from the first letter of the chain named. Names and notes keep the numbering of the source.

B1: KSHV pORF19 carboxyl-terminal domain (pORF19_(KCTD)) (domain or fragment)
chain: ASHRNFTVAIVPGDPHFSVDRDLRGELMPTLYMNQNQWLPSFGPWFISLTDNAMQRRVFPKELKGTVNFQNSTSLKLISHTLTTVASTTADFFADARHLTDTQAALCLVNAYFCQKTSRQLPATPDDLLADLPQKLDLLITQLKQESGPGDFSFTYSNPQERASLAPLNKESRYPTAFFQRHKLHAMMAKAGLFPHNKGTGAPGTAPAMDLVFAITSAMFGSDIPPFSAYQWNLRAGIVALEVFILAYGLLEFGQVARGHPNRRLNLVSLLGPKFQPGALPDPNAPMLKRGQLFSFISEHYIIPTLQANPNAPVSFIFPGIILAALEARSTVSHKQPGPFVNLTGSRFNEIFEILNQQLTFRDPLALLQARTALRLATEEGLDVLLSHPSPPTLLQEIIKSQFGGGDDYDRAYFMVLGCLPVVLAVV
notes: The His tag was removed with carboxypeptidase after a first SEC; Two of the three crystal forms (P21, P6322) were of a selenomethionine derivative; also called wt pORF19_(KCTD); KSHV pORF19 CTD; source: E. coli Rosetta (DE3), purified (HisTrap, SEC); not shown: His tag, C-terminal, cleaved
B2: oxidized pORF19_(KCTD)CC (KSHV pORF19 CTD with P137C and P461C) (domain or fragment)
chain: B1 chain with P15C, P339C
modifications: engineered inter-protomeric disulfide bond between the cysteines introduced at 137 and 461 (oxidized form)
notes: pORF19 of Kaposi's sarcoma-associated herpesvirus, residues 123 to 549, with two prolines changed to cysteines; The protomers of the oxidized form are covalently linked by the engineered disulfide bond; also called pentameric pORF19KCTDCC; source: E. coli Rosetta (DE3), purified as pORF19_(KCTD); oxidized with 2 mM GSSG in 0.5 M lithium acetate, then SEC (Superose 6 Increase); not shown: His tag, …

Key:
[1] = target: Baculovirus-produced KSHV capsids lacking the portal protein pORF43, Q2HRA7;Q2HRB6; experiment: western blot of gradient-purified capsids (capsid assembly assay in insect cells), band intensity quantified; conditions: 3 independent biological replicates; capsid loading normalized to pORF25-V5 and pORF26; parent: est. 100; read off a plot
[2] = target: the molecule itself; experiment: crystal structure; hanging drop, 18°C, 0.1 M HEPES pH 7.5, 1.69 M lithium acetate (native, P212121, 2.6 Å); selenomethionine derivative in 0.1 M MES pH 7.4, 2 M lithium acetate (P21, P6322)
[3] = target: the molecule itself; experiment: AUC; sedimentation velocity, 40,000 rpm, 20°C, LiAc buffer with 50 mM HEPES pH 7.5 and 0.5 M lithium acetate; interface mutants at 127 μM, oxidized pORF19_(KCTD)CC at 11 μM

Row | Molecule | percent of parent (% of wt pORF19) [1] | further results
1 | GFP-tagged wt pORF19 (ORF19-GFP) of KSHV D173A; Q177A | 93 | –
2 | GFP-tagged wt pORF19 (ORF19-GFP) of KSHV V463W; L465Y | 91 | –
3 | GFP-tagged wt pORF19 (ORF19-GFP) of KSHV loop (156MNQNQ160 replaced by a flexible linker) | 92 | –
4 | B1 | – | stoichiometry N [2]: 5
5 | B2 | – | stoichiometry N [3]: 5
